Paper PMC9638933

What was measured:
[1] = molecular target: wildtype Ku (KuWT), Mycobacterium tuberculosis (M. tuberculosis) (UniProt P9WKD9); assay: BLI; Octet RED96, 37°C, 1000 rpm; biotinylated Ku (25 ug/ml) loaded on streptavidin biosensors; LigD, LIG or POL as analyte (12.5 ug/ml), 300 s association, 300 s dissociation; 1x kinetics buffer (0.1% BSA, 0.02% Tween-20, 0.05% sodium azide in PBS); grouped global fit
[2] = molecular target: Mycobacterium tuberculosis Kucore (entire C-terminus removed) (M. tuberculosis) (UniProt P9WKD9); assay: BLI; biotinylated Ku protein (25 ug/ml) loaded on streptavidin biosensors as ligand; 12.5 ug/ml LIG or POL as analyte; 37 C, 1000 rpm; 1x kinetics buffer (0.1% BSA, 0.02% Tween-20, 0.05% sodium azide in PBS); association 300 s, dissociation 300 s; grouped global fit; n = 4 technical replicates
[3] = molecular target: Mycobacterium tuberculosis Kumin (extended C-terminus removed) (M. tuberculosis) (UniProt P9WKD9); assay: as above
[4] = molecular target: the molecule itself; assay: SEC-MALS; 50 uM protein; 50 mM HEPES pH 8.0, 1 mM EDTA, 200 mM NaCl; Superdex 200 Increase 10/300 GL
[5] = molecular target: T1, LigD (wildtype), Mycobacterium tuberculosis (M. tuberculosis, UniProt P9WNV3 1-759); assay: BLI; Octet RED96, 37°C, 1000 rpm; biotinylated Ku (25 ug/ml) loaded on streptavidin biosensors; LigD, LIG or POL as analyte (12.5 ug/ml), 300 s association, 300 s dissociation; 1x kinetics buffer (0.1% BSA, 0.02% Tween-20, 0.05% sodium azide in PBS); grouped global fit; conditions: both partners purified
T1 construct: The His tag is TEV-cleavable; also called wildtype LigD

[6] = molecular target: the molecule itself; assay: SEC-MALS; 50 uM protein in 50 mM HEPES pH 8.0, 1 mM EDTA, 200 mM NaCl; Superdex 200 Increase 10/300 GL; MiniDAWN and Optilab

T1 sequence (P9WNV3 whole entry): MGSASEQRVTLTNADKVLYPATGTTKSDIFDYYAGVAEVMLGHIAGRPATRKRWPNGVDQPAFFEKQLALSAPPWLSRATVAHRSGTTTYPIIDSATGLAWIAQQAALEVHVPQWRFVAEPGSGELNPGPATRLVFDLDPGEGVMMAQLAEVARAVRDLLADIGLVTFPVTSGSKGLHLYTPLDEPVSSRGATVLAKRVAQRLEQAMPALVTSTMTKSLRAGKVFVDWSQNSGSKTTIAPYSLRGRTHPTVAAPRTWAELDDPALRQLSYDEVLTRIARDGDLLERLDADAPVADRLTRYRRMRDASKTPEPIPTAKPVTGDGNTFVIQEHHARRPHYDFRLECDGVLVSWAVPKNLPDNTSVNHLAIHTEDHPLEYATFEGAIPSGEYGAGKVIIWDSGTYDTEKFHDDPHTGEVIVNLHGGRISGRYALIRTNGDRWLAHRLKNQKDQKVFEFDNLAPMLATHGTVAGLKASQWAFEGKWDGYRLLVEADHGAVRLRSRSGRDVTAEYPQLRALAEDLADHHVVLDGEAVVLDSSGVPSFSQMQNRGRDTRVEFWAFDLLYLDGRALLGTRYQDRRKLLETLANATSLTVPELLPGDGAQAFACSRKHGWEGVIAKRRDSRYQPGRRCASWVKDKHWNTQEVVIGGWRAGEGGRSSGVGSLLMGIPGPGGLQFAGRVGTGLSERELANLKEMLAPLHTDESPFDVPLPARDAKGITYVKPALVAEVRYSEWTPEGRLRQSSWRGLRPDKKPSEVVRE
Chain of polymerase domain of Mycobacterium tuberculosis LigD (domain or fragment) (P59971 1-288 limits assumed): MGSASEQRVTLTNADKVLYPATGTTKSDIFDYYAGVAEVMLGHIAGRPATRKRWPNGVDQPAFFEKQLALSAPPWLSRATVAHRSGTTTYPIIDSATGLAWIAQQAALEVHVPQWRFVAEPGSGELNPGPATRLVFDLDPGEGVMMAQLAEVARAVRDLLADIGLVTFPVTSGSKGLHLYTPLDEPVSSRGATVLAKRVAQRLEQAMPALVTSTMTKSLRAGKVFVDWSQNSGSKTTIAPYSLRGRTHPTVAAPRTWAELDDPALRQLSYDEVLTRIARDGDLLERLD
Chain of ligase domain of Mycobacterium tuberculosis LigD (domain or fragment) (P59971 454-759, tags left off): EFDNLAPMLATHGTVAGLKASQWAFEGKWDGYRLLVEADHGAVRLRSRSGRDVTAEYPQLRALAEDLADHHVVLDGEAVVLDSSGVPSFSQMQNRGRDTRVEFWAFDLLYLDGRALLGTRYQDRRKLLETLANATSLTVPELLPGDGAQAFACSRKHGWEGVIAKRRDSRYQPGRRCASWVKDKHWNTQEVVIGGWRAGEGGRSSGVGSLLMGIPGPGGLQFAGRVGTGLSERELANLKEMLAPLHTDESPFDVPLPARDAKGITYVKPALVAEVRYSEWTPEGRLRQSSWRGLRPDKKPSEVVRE
Chain of LigD polymerase domain (POL), Mycobacterium tuberculosis (domain or fragment) (P59971 1-288 limits assumed): as the sequence (P59971 1-288 limits assumed) above
Chain of LigD ligase domain (LIG), Mycobacterium tuberculosis (domain or fragment) (P59971 454-759, tags left off): as the sequence (P59971 454-759, tags left off) above

Molecule | stoichiometry N [4] | Kd [5] [nM] | stoichiometry N [6] | further results
LigD polymerase domain (POL), Mycobacterium tuberculosis (domain or fragment) | – | – | – | Kd [1]: 52.7 nM
polymerase domain of Mycobacterium tuberculosis LigD (domain or fragment) | – | – | – | Kd [2]: 291 nM; Kd [3]: 774 nM
LigD ligase domain (LIG), Mycobacterium tuberculosis (domain or fragment) | – | – | – | Kd [1]: 81.4 nM
ligase domain of Mycobacterium tuberculosis LigD (domain or fragment) | – | – | – | Kd [2]: 274 nM; Kd [3]: 571 nM
Mycobacterium tuberculosis Ku L251A (natural protein) MRAIWTGSIAFGLVNVPVKVYSATADHDIRFHQVHAKDNGRIRYKRVCEACGEVVDYRDLARAYESGDGQMVAITDDDIASLPEERSREIEVLEFVPAADVDPMMFDRSYFLEPDSKSSKSYVLLAKTLAETDRMAIVHFTLRNKTRLAALRVKDFGKREVMMVHTLLWPDEIRDPDFPVLDQKVEIKPAELKMAGQVVDSMADDFNPDRYHDTYQEQLQELIDTKLEGGQAFTAEDQPRLLDEPEDVSDALAKLEASVKARSKANSNVPTPP | 2 | – | – | –
Mycobacterium tuberculosis Ku S258A (natural protein) MRAIWTGSIAFGLVNVPVKVYSATADHDIRFHQVHAKDNGRIRYKRVCEACGEVVDYRDLARAYESGDGQMVAITDDDIASLPEERSREIEVLEFVPAADVDPMMFDRSYFLEPDSKSSKSYVLLAKTLAETDRMAIVHFTLRNKTRLAALRVKDFGKREVMMVHTLLWPDEIRDPDFPVLDQKVEIKPAELKMAGQVVDSMADDFNPDRYHDTYQEQLQELIDTKLEGGQAFTAEDQPRLLDEPEDVSDLLAKLEAAVKARSKANSNVPTPP | 2 | – | – | –
Mycobacterium tuberculosis Ku R262A (natural protein) MRAIWTGSIAFGLVNVPVKVYSATADHDIRFHQVHAKDNGRIRYKRVCEACGEVVDYRDLARAYESGDGQMVAITDDDIASLPEERSREIEVLEFVPAADVDPMMFDRSYFLEPDSKSSKSYVLLAKTLAETDRMAIVHFTLRNKTRLAALRVKDFGKREVMMVHTLLWPDEIRDPDFPVLDQKVEIKPAELKMAGQVVDSMADDFNPDRYHDTYQEQLQELIDTKLEGGQAFTAEDQPRLLDEPEDVSDLLAKLEASVKAASKANSNVPTPP | 2 | – | – | –
Mycobacterium tuberculosis Ku D247A (natural protein, The theoretical MW of 33.7 kDa equals that of KuWT) MRAIWTGSIAFGLVNVPVKVYSATADHDIRFHQVHAKDNGRIRYKRVCEACGEVVDYRDLARAYESGDGQMVAITDDDIASLPEERSREIEVLEFVPAADVDPMMFDRSYFLEPDSKSSKSYVLLAKTLAETDRMAIVHFTLRNKTRLAALRVKDFGKREVMMVHTLLWPDEIRDPDFPVLDQKVEIKPAELKMAGQVVDSMADDFNPDRYHDTYQEQLQELIDTKLEGGQAFTAEDQPRLLDEPEAVSDLLAKLEASVKARSKANSNVPTPP | 2 | – | – | –
Mycobacterium tuberculosis Ku D250A (natural protein) MRAIWTGSIAFGLVNVPVKVYSATADHDIRFHQVHAKDNGRIRYKRVCEACGEVVDYRDLARAYESGDGQMVAITDDDIASLPEERSREIEVLEFVPAADVDPMMFDRSYFLEPDSKSSKSYVLLAKTLAETDRMAIVHFTLRNKTRLAALRVKDFGKREVMMVHTLLWPDEIRDPDFPVLDQKVEIKPAELKMAGQVVDSMADDFNPDRYHDTYQEQLQELIDTKLEGGQAFTAEDQPRLLDEPEDVSALLAKLEASVKARSKANSNVPTPP | 2 | – | – | –
wildtype Ku (KuWT), Mycobacterium tuberculosis (natural protein, biotinylated at multiple sites with NHS-LC-Biotin for BLI only (sites listed in Supplementary Table S3), The His tag is TEV-cleavable; Homodimer by SEC-MALS) MRAIWTGSIAFGLVNVPVKVYSATADHDIRFHQVHAKDNGRIRYKRVCEACGEVVDYRDLARAYESGDGQMVAITDDDIASLPEERSREIEVLEFVPAADVDPMMFDRSYFLEPDSKSSKSYVLLAKTLAETDRMAIVHFTLRNKTRLAALRVKDFGKREVMMVHTLLWPDEIRDPDFPVLDQKVEIKPAELKMAGQVVDSMADDFNPDRYHDTYQEQLQELIDTKLEGGQAFTAEDQPRLLDEPEDVSDLLAKLEASVKARSKANSNVPTPP | – | 196 | 2 | –
Ku D247A (M. tuberculosis) (natural protein, biotinylated with NHS-LC-Biotin for BLI only) MRAIWTGSIAFGLVNVPVKVYSATADHDIRFHQVHAKDNGRIRYKRVCEACGEVVDYRDLARAYESGDGQMVAITDDDIASLPEERSREIEVLEFVPAADVDPMMFDRSYFLEPDSKSSKSYVLLAKTLAETDRMAIVHFTLRNKTRLAALRVKDFGKREVMMVHTLLWPDEIRDPDFPVLDQKVEIKPAELKMAGQVVDSMADDFNPDRYHDTYQEQLQELIDTKLEGGQAFTAEDQPRLLDEPEAVSDLLAKLEASVKARSKANSNVPTPP | – | 189 | 2 | –
Ku D250A (M. tuberculosis) (natural protein, biotinylated with NHS-LC-Biotin for BLI only) MRAIWTGSIAFGLVNVPVKVYSATADHDIRFHQVHAKDNGRIRYKRVCEACGEVVDYRDLARAYESGDGQMVAITDDDIASLPEERSREIEVLEFVPAADVDPMMFDRSYFLEPDSKSSKSYVLLAKTLAETDRMAIVHFTLRNKTRLAALRVKDFGKREVMMVHTLLWPDEIRDPDFPVLDQKVEIKPAELKMAGQVVDSMADDFNPDRYHDTYQEQLQELIDTKLEGGQAFTAEDQPRLLDEPEDVSALLAKLEASVKARSKANSNVPTPP | – | 219 | 2 | –
Ku S258A (M. tuberculosis) (natural protein, biotinylated with NHS-LC-Biotin for BLI only) MRAIWTGSIAFGLVNVPVKVYSATADHDIRFHQVHAKDNGRIRYKRVCEACGEVVDYRDLARAYESGDGQMVAITDDDIASLPEERSREIEVLEFVPAADVDPMMFDRSYFLEPDSKSSKSYVLLAKTLAETDRMAIVHFTLRNKTRLAALRVKDFGKREVMMVHTLLWPDEIRDPDFPVLDQKVEIKPAELKMAGQVVDSMADDFNPDRYHDTYQEQLQELIDTKLEGGQAFTAEDQPRLLDEPEDVSDLLAKLEAAVKARSKANSNVPTPP | – | 258 | 2 | –
Ku L251A (M. tuberculosis) (natural protein, biotinylated with NHS-LC-Biotin for BLI only) MRAIWTGSIAFGLVNVPVKVYSATADHDIRFHQVHAKDNGRIRYKRVCEACGEVVDYRDLARAYESGDGQMVAITDDDIASLPEERSREIEVLEFVPAADVDPMMFDRSYFLEPDSKSSKSYVLLAKTLAETDRMAIVHFTLRNKTRLAALRVKDFGKREVMMVHTLLWPDEIRDPDFPVLDQKVEIKPAELKMAGQVVDSMADDFNPDRYHDTYQEQLQELIDTKLEGGQAFTAEDQPRLLDEPEDVSDALAKLEASVKARSKANSNVPTPP | – | 134 | 2 | –
Ku R262A (M. tuberculosis) (natural protein, biotinylated with NHS-LC-Biotin for BLI only) MRAIWTGSIAFGLVNVPVKVYSATADHDIRFHQVHAKDNGRIRYKRVCEACGEVVDYRDLARAYESGDGQMVAITDDDIASLPEERSREIEVLEFVPAADVDPMMFDRSYFLEPDSKSSKSYVLLAKTLAETDRMAIVHFTLRNKTRLAALRVKDFGKREVMMVHTLLWPDEIRDPDFPVLDQKVEIKPAELKMAGQVVDSMADDFNPDRYHDTYQEQLQELIDTKLEGGQAFTAEDQPRLLDEPEDVSDLLAKLEASVKAASKANSNVPTPP | – | 125 | 2 | –
